Paper PMC6394990, “Detailed characterization of the solution kinetics and thermodynamics of biotin, biocytin and HABA binding to avidin and streptavidin” (PLoS ONE, 2019)
Values joined by “and” are separate entries in the source; they are usually repeats but may differ in a detail not shown here. Equal values may be shown once. Read-outs that look alike come from different tables or passages of the source.

Legend:
streptavidin (SAV) [1] = biological target: T1, streptavidin (SAV) (Streptomyces avidinii, UniProt P22629); assay: Literature calorimetry reaction thermodynamics; type: binding
T1 construct: purchased Sigma Aldrich (St. Louis, MO)
T1 sequence (P22629 25-183): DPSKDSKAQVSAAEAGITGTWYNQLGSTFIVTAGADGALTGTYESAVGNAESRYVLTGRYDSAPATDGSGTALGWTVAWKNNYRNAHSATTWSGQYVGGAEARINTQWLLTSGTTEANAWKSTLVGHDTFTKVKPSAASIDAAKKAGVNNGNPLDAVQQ

streptavidin (SAV) [2] = biological target: T1, streptavidin (SAV); conditions: cited from earlier work
streptavidin (SAV) [3] = biological target: T1, streptavidin (SAV); conditions: cited from earlier work; for Off rate constants, rate / Ea from off rate constants: SAV; for Off rate constants, rate: ligand not given, ref klumb paper; for ln(frac bound): rate off SAV
streptavidin (SAV) [4] = biological target: T1, streptavidin (SAV); assay: Stopped-flow association kinetics of dye-labeled biotin probes binding to streptavidin (F(t), rF(t); Arrhenius plots/global fitting); conditions: forward step from Initial 0, probe not given
Procedure: These reactions were carried out in a buffered solution of 10 mM Tris-HCl, 100 mM KCl, 2.5 mM MgCl2 and 1 mM CaCl2 at pH 8 and only AV-BcO reactions included pH 9 and 10. […] The deglycosylation of AV (for comparative association reactions) was carried out using the provided standard protocol with endoglycosidase H [47], both with and without incubation of a denaturant solution (2% SDS and 1M 2-mercaptoethanol).
The reactions were collected with the SF instrument, described previously. […] The AC(t) and DC(t) data were baseline corrected before obtaining the signal ratio (Eq 4) as a function of time (ρt).
(§1) The constant AGain is the instrumental amplitude gain and was evaluated by solving ρ(t) using the known steady state anisotropy (rss) of the complexes which is equivalent to the r(t) at t = ∞; and H, obtained from the equivalent grating factor (G) for the filters and photo multiplier tubes in the SF. For the probes used in here G was 0.82 and H = (1-G)/(1+G) = 0.099. Knowing Again and H, the AC(t) and DC(t) signals can be solved for r(t) and F(t) (Eqs 4 and 5) and the normalized fluorescence, F¯(t) , and corrected fluorescence anisotropy, rF¯(t), were obtained when F¯(0) and rF¯(0) were scaled to 1 at t = 0.
(§2) The F¯(t) (Eq 6) is equivalent to (I||) + 2 (I⊥) and proportional to quantum yield (QYi), molar absorptivity (εi) and to the formation or disappearance of the emitting species Xi(t); and rF¯(t) including the steady state anisotropies (rss) of each fluorescent species (Eq 7).
(§3) The possible reaction models were discriminated by the squared residuals of the observed and calculated association traces of both fluorescence and anisotropy fluorescence signals, F¯(t) and rF¯(t) , respectively.

streptavidin (SAV) [5] = biological target: T1, streptavidin (SAV); assay: Literature kinetics, affinity and dissociation (backward) activation parameters; type: binding
[6] = parameters: method as in PMID 10796986; conditions: cited from earlier work
avidin (AV) [7] = biological target: T2, avidin (AV) (Gallus gallus, UniProt P02701); assay: Literature calorimetry reaction thermodynamics; type: binding; conditions: line without author below the literature lines (average)
T2 construct: purchased Calbiochem (La Jolla, CA)
T2 sequence (P02701 25-152): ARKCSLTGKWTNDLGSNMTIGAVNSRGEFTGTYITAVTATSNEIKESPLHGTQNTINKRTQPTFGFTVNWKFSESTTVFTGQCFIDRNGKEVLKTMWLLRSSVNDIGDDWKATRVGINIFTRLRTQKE

avidin (AV) [8] = biological target: T2, avidin (AV); conditions: cited from earlier work
avidin (AV) [9] = biological target: T2, avidin (AV); assay: Literature kinetics, affinity and dissociation (backward) activation parameters; type: binding
avidin (AV) [10] = biological target: T2, avidin (AV); assay: Stopped-flow association kinetics of dye-labeled biotin probes binding to avidin (F(t), rF(t); Arrhenius plots/global fitting); parameters: ln(k) / dS+ / dG+ / Eon for BFl / b of the line y = m1x+b1: unit not given here; conditions: forward step from Initial 0, probe not given
Procedure: These reactions were carried out in a buffered solution of 10 mM Tris-HCl, 100 mM KCl, 2.5 mM MgCl2 and 1 mM CaCl2 at pH 8 and only AV-BcO reactions included pH 9 and 10. The concentrations, after mixing, were of 20 nM of dye-labeled B7 probe and 260 nM, 520 nM or 1040 nM of AV; and 200 nM, 300 nM, 400 nM or 800 nM of SAV at temperatures of 10, 15, 20 and 25°C. The deglycosylation of AV (for comparative association reactions) was carried out using the provided standard protocol with endoglycosidase H [47], both with and without incubation of a denaturant solution (2% SDS and 1M 2-mercaptoethanol).
The reactions were collected with the SF instrument, described previously. The fluorescence signal was collected through a 520 nm interference filter (Oriel Corp., Stratford, CT) with a detector time constant and SF dead time of 1 μs and 1 ms, respectively. The excitation light was provided by the Coherent Ar^+ ion laser (described above) at 488 nm with […] of incident power on the reaction cuvette. The laser source was followed by the photo-elastic modulator described above with the axis oriented 45^o with respect to the electric vector of the incident light and with the half-wave modulation (50 kHz) set for 488 nm excitation. The demodulation circuitry following the photomultiplier provided a DC(t) and a rectified AC(t) which were converted to digital data by a high-speed digitizer (PCI-5122) from National Instruments (Austin, TX) with 14-bit resolution and 100 MHz bandwidth, through channels 0 and 1. The data acquisition was controlled by LabVIEW (Vr 8) software at a collection rate of 6120 data points/second and stored in spreadsheets. The AC(t) and DC(t) data were baseline corrected before obtaining the signal ratio (Eq 4) as a function of time (ρt).
as §1, §2, §3

avidin (AV) [11] = biological target: T2, avidin (AV); conditions: cited from earlier work; for Off rate constants, ln k: AV, ligand not given, ref rhiziavidin paper, the values are: ln koff
[12] = line without author below the literature lines
[13] = line without author below the literature lines (average)
[14] = Enthalpy block, literature value, ref not given
[15] = Gibbs block, literature value, ref not given
[16] = entropy block, literature value, ref not given
[17] = ligand not given (biotin binding), ref Green
[18] = ligand not given (biotin binding), ref Helppolainen
[19] = ligand not given (biotin binding), ref Hyre
[20] = ligand not given (biotin binding), ref Klumb
[21] = ligand not given (biotin binding), ref Weber
[22] = Enthalpy block, from literature off rates, ref not given
[23] = ligand not given (biotin binding), first Green line, ref Green
[24] = ligand not given (biotin binding), ref Suurkuusk
[25] = ligand not given (biotin binding), second Green line, ref Green

For “SAV: streptavidin, homo-tetrameric biotin-binding protein, CAS 9013-20-1”, the TdS (streptavidin (SAV) [1]; [12]) is listed as -46.0, the dH (streptavidin (SAV) [1]; [13]) is listed as -24.8 kcal/mol and the dH (streptavidin (SAV) [2]; [14]) is listed as -24.8. For the same substance, the dG (streptavidin (SAV) [2]; [15]) was -18.2, the dS (streptavidin (SAV) [2]; [16]) was -21 and the TdS (streptavidin (SAV) [2]; [17]) was -6.4. For the same substance, the dG (streptavidin (SAV) [2]; [17]) was -18.1 kcal/mol, the dH (streptavidin (SAV) [2]; [18]) was -26.7 kcal/mol and the TdS (streptavidin (SAV) [2]; [19]) was -13.7. For the same substance, the dCp (streptavidin (SAV) [2]; [19]) was -345, the dG (streptavidin (SAV) [2]; [19]) was -18.3 kcal/mol and the dH (streptavidin (SAV) [2]; [19]) was -24.5 kcal/mol. For the same substance, the dS (streptavidin (SAV) [2]; [19]) was -45.9, the dH (streptavidin (SAV) [2]; [20]) was -24.9 kcal/mol and the TdS (streptavidin (SAV) [2]; ligand not given (biotin binding), ref Stayton) was -21.5. For the same substance, the dH (streptavidin (SAV) [2]; [21]) was -32 kcal/mol, the dH (streptavidin (SAV) [2]; ligand not printed in the sheet (biotin binding), ref Green) was -23 kcal/mol and the “Eoff (ave)” value (streptavidin (SAV) [3]; [22]) was 29.4. The “Off rate constants, rate” value (streptavidin (SAV) [3]; 20 C) was 1.862e-6, the “Off rate constants, rate” value (streptavidin (SAV) [3]; 30 C) was 9.12e-6 and the “Off rate constants, rate” value (streptavidin (SAV) [3]; 39 C) was 4.467e-5. For the same substance, the “Ea from off rate constants” value (streptavidin (SAV) [3]; ref hyre) was 30.4 kcal/mol and 30.4 ± 0.2hyre kcal/mol, the “Ea from off rate constants” value (streptavidin (SAV) [3]; ref klumb) was 29.4 kcal/mol and 29.4 ± 0.4klumb kcal/mol and the “Ea from off rate constants” value (streptavidin (SAV) [3]; ref rhiziavidin-helponainen-2007) was 29.0 ± 1.0 kcal/mol. For the same substance, the Eaoff (streptavidin (SAV) [3]; [18]) was 29, the “TdS*” value (streptavidin (SAV) [3]; [18]) was 7.6 kcal/mol and the “dH*” value (streptavidin (SAV) [3]; [18]) was 32 kcal/mol. The “dS*” value (streptavidin (SAV) [3]; [18]) was 0.0257 kcal/mol, the Eaoff (streptavidin (SAV) [3]; [19]) was 29.4 and the “TdS*” value (streptavidin (SAV) [3]; [19]) was 5.6 kcal/mol. For the same substance, the “dH*” value (streptavidin (SAV) [3]; [19]) was 30.4 kcal/mol, the “dS*” value (streptavidin (SAV) [3]; [19]) was 0.0058 kcal/mol and the Eaoff (streptavidin (SAV) [3]; [20]) was 30.4. For the same substance, the “dG*” value (streptavidin (SAV) [3]; [20]) was 24.6, the “dH*” value (streptavidin (SAV) [3]; [21]) was 40 kcal/mol and the “ln(frac bound)” value (streptavidin (SAV) [3]; time 13 hr, ref klumb) was -0.19. The “ln(frac bound)” value (streptavidin (SAV) [3]; time 22 hr, ref klumb) was -0.36, the “ln(frac bound)” value (streptavidin (SAV) [3]; time 36 hr, ref klumb) was -0.47 and the “ln(frac bound)” value (streptavidin (SAV) [3]; time 47 hr, ref klumb) was -0.62. For the same substance, the “ln(frac bound)” value (streptavidin (SAV) [3]; time 63 hr, ref klumb) was -0.78, the “dG+” value (streptavidin (SAV) [4]; Gibbs block) was 4 and the “dS+” value (streptavidin (SAV) [4]; entropy block) was 6.7. The “sum (Enthalpy: Eon for BFl and dH)” value (streptavidin (SAV) [5]; Enthalpy block) was 30.8, the “sum (Gibbs: dG+ and dG)” value (streptavidin (SAV) [5]; Gibbs block) was 22.2 and the “dSǂ from off rate constants, from transition state teory” value (streptavidin (SAV) [5]; SAV) was 18.8. For the same substance, the “TdS*” value (streptavidin (SAV) [5]; SAV, at 25C) was 8.94E+03, the “dG*” value (streptavidin (SAV) [5]; SAV, at 25C, line names rhiziavidin-helponainen-2007) was 2.14E+04 and the “slope intersept, ln A” value (streptavidin (SAV) [5]; SAV, from literature off rate constants) was 38.85. For the same substance, the “dS (intercept less ln[RT/Noh), times 1.987)” value (streptavidin (SAV) [5]; SAV, from off rate constants) was 30.0, the “sum (entropy: dS+ and dS)” value (streptavidin (SAV) [5]; entropy block) was 27.7 and the “dH + Ea” value (streptavidin (SAV) [5]; [12]) was 31.8. The “dS*” value (streptavidin (SAV) [5]; [12]) was 0.0195 kcal/mol, the Eaoff (streptavidin (SAV) [5]; [13]) was 29.6 and the “thermal stability with bound B7” value [6] was 112 °C and 117 °C. For the same substance, the “thermal stability without bound B7” value [6] was 75 °C.
In the case of “AV: avidin, homo-tetrameric biotin-binding protein, CAS 1405-69-2”, the dH (avidin (AV) [7]) is given as -21.9 kcal/mol, the dH (avidin (AV) [8]; [14]) is given as -23.2 and the dG (avidin (AV) [8]; [15]) is given as -20.7. The dS (avidin (AV) [8]; [16]) was -8.9, the TdS (avidin (AV) [8]; [23]) was 0 kcal/mol and the dG (avidin (AV) [8]; [23]) was -20.5 kcal/mol. The dS (avidin (AV) [8]; [23]) was 0, the TdS (avidin (AV) [8]; [24]) was -8.9 kcal/mol and the dCp (avidin (AV) [8]; [24]) was -237. The dH (avidin (AV) [8]; [24]) was -22.5 kcal/mol, the dH (avidin (AV) [8]; ligand not given (biotin binding), ref swamy) was -23.4 kcal/mol and the TdS (avidin (AV) [8]; [25]) was -2.65 kcal/mol. For the same substance, the dG (avidin (AV) [8]; [25]) was -20.75 kcal/mol, the dH (avidin (AV) [8]; [25]) was -20.3 kcal/mol and the dS (avidin (AV) [8]; [25]) was -8.9. For the same substance, the dSǂ from off rate constants, from transition state teory (avidin (AV) [9]; AV) was 31.8 cal/(mol·K), the “TdS*” value (avidin (AV) [9]; AV, at 25C) was 1.28E+04 and the “dG*” value (avidin (AV) [9]; AV, at 25C, from off rates of rhiziavidin-helponainen-2007) was 2.47E+04. For the same substance, the dS (intercept less ln[RT/Noh), times 1.987) (avidin (AV) [9]; AV, from off rate constants) was 43 cal/(mol·K), the “slope intersept, ln A” value (avidin (AV) [9]; AV, from off rate constants of rhiziavidin-helponainen-2007) was 45.4 and the “sum (Enthalpy: Eon for BFl and dH)” value (avidin (AV) [9]; Enthalpy block) was 37.6. For the same substance, the “sum (Gibbs: dG+ and dG)” value (avidin (AV) [9]; Gibbs block) was 25.4, the “sum (entropy: dS+ and dS)” value (avidin (AV) [9]; entropy block) was 41.7 and the Ea from off rate constants (avidin (AV) [9]; for AV, from off rates of rhiziavidin-helponainen-2007) was 37.5 kcal/mol. The Eaoff (avidin (AV) [9]; [12]) was 35.6, the “dH + Ea” value (avidin (AV) [9]; [12]) was 36.5 and the “dG+” value (avidin (AV) [10]; Gibbs block) was 4.7. The “dS+” value (avidin (AV) [10]; entropy block) was 32.8, the Off rate constants, ln k (avidin (AV) [11]; 43 C) was -14.3 and the Off rate constants, ln k (avidin (AV) [11]; 55 C) was -12.2. For the same substance, the Off rate constants, ln k (avidin (AV) [11]; 66 C) was -10, the Off rate constants, ln k (avidin (AV) [11]; 68 C) was -10.1 and the “Eoff (ave)” value (avidin (AV) [11]; [22]) was 37.6. The Eaoff (avidin (AV) [11]; [18]) was 35.6, the “thermal stability with bound B7” value [6] was 117 °C and 112 °C and the “thermal stability without bound B7” value [6] was 84 °C.
